{"source": "paper PMC12575831", "test_system": "PUS7 (pseudouridine synthase 7) (Homo sapiens)", "assay": "EMSA", "settings": "1 mM Mg2+; 40 nM RNA, 0-500 nM PUS7; none (unmodified IVT, U250); 10 mM Tris-HCl pH 7.5, 100 mM KCl, 1 mM MgCl2, 0.1 mM DTT, 5% glycerol; 37 °C 30 min; gel 4-20% TBE at 4 °C", "data": [{"substance": "in vitro-transcribed 7SK snRNA", "values": [{"measurement": "Kd", "result": 98, "unit": "nM"}]}]}
